In patent US7462599B2, “Use of effectors of glutaminyl and glutamate cyclases” (Probiodrug AG, priority 2003, dated 2008):

Target: QC (Homo sapiens, UniProt Q16769)
Assay: LC/MS analysis of QC-catalyzed pyroglutamate formation
Assay type: biochemical

QC, sequence (Q16769 29-361): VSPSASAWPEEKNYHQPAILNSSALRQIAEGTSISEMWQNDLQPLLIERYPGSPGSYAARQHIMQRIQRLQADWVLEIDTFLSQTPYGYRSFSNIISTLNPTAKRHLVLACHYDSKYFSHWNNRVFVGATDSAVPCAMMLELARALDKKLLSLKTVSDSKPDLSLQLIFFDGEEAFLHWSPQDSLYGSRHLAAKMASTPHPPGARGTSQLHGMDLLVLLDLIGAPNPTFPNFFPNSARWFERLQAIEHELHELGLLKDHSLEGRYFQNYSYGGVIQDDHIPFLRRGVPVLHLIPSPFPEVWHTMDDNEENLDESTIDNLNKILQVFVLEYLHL

B1: MCP-2 isoforms: Human Monocyte Chemotactic Protein 2 (MCP-2) isoforms, 76 residue chemokine (protein, UniProt P80075 24-99, looked up)
C-C motif chemokine 8: QPDSVSIPITCCFNVINRKIPIQRLESYTRITNIQCPKEAVIFKTKRGKEVCADPKERWVRDSMKHLDQIFQNLKP
Question: How did the “formation of N-terminal pyroglutamate catalyzed by QC” value turn out when B1 was run?
Answer: is catalyzed by QC
